According to the Human Domainome abundance scans (Beltran et al. 2025):

B1: Pituitary-specific positive transcription factor 1, residues 130 to 198; numbered along this chain, P28069 (parent)
chain: RELEKFANEFKVRRIKLGYTQTNVGEALAAVHGSEFSQTTICRFENLQLSFKNACKLKAILSKWLEEAE

Variants of: B1
Experiment: abundance fitness (aPCA) (normalised: wild type 0, dead -1); higher = more abundant; growth selection in yeast, the domain comes from the species named
Conditions: Homo sapiens

Abundance fitness, by site and new letter:
V31: K 0.131 | H -0.574 | D -0.462 | G -0.404 | I 0.027 | F -0.34 | C -0.258 | L -0.058 | E -0.013
T20: R -0.941 | W -1.12 | S -0.044 | E -0.536 | Y -1.17 | N -0.384 | I -0.951 | Q -0.911 | L -0.683 | P -0.942 | C -0.871 | H -1.05 | V -0.789 | G -0.662
R14: V -0.712 | H -0.253 | S -0.995 | T -0.878 | M -0.645 | L -0.72 | Y -0.745 | P -0.781 | E -0.952 | D -0.725 | Q -0.74 | C -0.79 | N -0.897 | G -0.8
K16: R -0.027 | C -0.121 | A -0.08 | L -0.468 | G -0.559 | V -0.812 | N -0.122 | H -0.786 | Y -0.64 | T -0.809 | S -0.365 | F -0.909 | M -0.365 | D -0.665
A27: D -0.221 | Y -0.144 | Q 0.016 | W 0.053 | L -0.315 | N -0.74 | S -0.106 | P -0.868 | G -0.739 | E 0.137 | V -0.662 | C -0.289 | I -0.166 | T -0.18 | K -0.483 | F -0.437
Y19: H -0.376 | W -0.283 | V -0.855 | R -0.718 | S -0.696 | G -0.501 | E -0.934 | I -0.382 | K -0.674 | Q -0.149 | D -0.696 | F -0.501 | A -0.421 | C -0.562
K11: E -0.786 | M -0.546 | S -0.65 | W -0.911 | C -0.795 | F -1.02 | V -0.694 | R -0.021 | Q -0.507 | D -1.02 | I -0.458 | L -0.973 | G -0.6
L17: K -0.804 | Y -0.858 | N -0.729 | V -0.785 | H -0.497 | I -0.709 | M -0.453 | S -0.738 | A -0.401 | W -0.638 | F -0.588 | C -0.613 | T -0.941 | G -0.889 | R -0.803 | Q -0.821
A30: L -0.217 | C -0.127 | F -0.726 | P -0.468 | I -0.309 | K -0.008 | Y -0.633 | D -0.457 | R 0.042 | T -0.23 | N -0.219 | E -0.128 | G -0.298 | M -0.261 | V -0.444 | H -0.357 | S -0.138
R13: Q -0.193 | L -0.913 | K -0.308 | P -0.898 | D -0.803 | E -0.976 | V -0.734 | T -0.913 | F -0.872 | S -0.924 | N -0.618 | W -0.733 | G -0.69 | A -0.179
N23: A 0.267 | S 0.086 | H 0 | L -0.478 | Y 0.008 | V -0.27 | M 0.392 | C -0.184 | F 0.145 | I -0.539 | E 0.352 | P -0.992 | R -0.053 | Q 0.347
V12: M -0.045 | C -0.183 | H 0.095 | Y -0.295 | L -0.16 | D -0.175 | W -0.56 | S 0.089 | P -0.772 | A 0.173 | K -0.071 | R -0.101 | F -0.318 | Q 0.16 | I -0.002 | E 0.275
A29: S -0.119 | M -0.402 | T 0.063 | H -0.079 | K -0.202 | N -0.595 | G -0.416 | C -0.361 | Y -0.609 | P -0.89 | V -0.87 | R -0.127 | Q -0.112 | W -0.932 | I -0.492 | L -0.829 | F -0.509
E26: A -0.332 | W -0.493 | F -0.849 | C -0.476 | Q -0.527 | D 0.205 | N -0.083 | H -0.486 | V -0.461 | G -0.771
L28: P -0.853 | G -0.715 | R -0.554 | I -0.276 | D -0.162 | C -0.889 | E -0.718 | A -0.799 | T -0.226 | S -0.732 | M -0.824 | Y -0.711 | N -0.863
I15: T -0.13 | M 0.014 | Q 0.042 | L -0.196 | C -0.327 | H -0.393 | E -0.014 | P -1.03 | S -0.272 | G -0.404 | K -0.054 | D -0.89 | R -0.083 | V -0.219 | Y -0.761 | N -0.546 | A -0.173
V24: R -0.931 | T -0.625 | L -0.361 | F -0.92 | I -0.545 | N -0.581 | M -0.851 | S -0.681 | C -0.337 | A -0.728 | K -0.846 | Y -0.767 | G -0.753
T22: S 0.106 | L -0.156 | E 0.491 | I -0.525 | K 0.267 | C -0.108 | N -0.063 | H 0.041 | M 0.08 | W 0.18 | Y -0.392 | Q 0.209 | P -0.573 | G -0.052 | A 0.357 | V -0.328
E9: M -0.11 | V -0.65 | Y -0.72 | L -0.246 | R -0.645 | T -0.398 | W -0.057 | P -0.917 | F -0.239 | K -0.323 | Q -0.188 | S -0.213
G25: C 0.005 | N -0.911 | M -0.468 | P -0.776 | K -0.797 | D -0.647 | L -0.692 | I -0.184 | W -0.001 | T -0.325 | Q -0.171 | R -0.813 | Y 0.101 | S 0.198 | F -0.285 | A 0.396 | V 0.085
F10: L -0.731 | N -0.59 | H -0.762 | V -0.649 | G -1.05 | W -0.961 | Q -0.434 | I -0.963 | S -0.544 | R -0.738 | Y -0.518 | T -0.915 | K -0.721 | A -0.803 | M -0.621 | C -0.923 | P -0.931
Q21: A -0.16 | G -1.07 | L -0.138 | F -0.932 | P -0.275 | E -0.549 | M -0.394 | Y -0.325 | W -0.592 | V -0.278 | D -0.674 | N -0.766 | R -0.288 | T -0.028 | H -0.164 | I -0.246 | S -0.506 | K -0.702
G18: W -0.83 | N -0.969 | R -0.84 | L -0.62 | S -0.838 | H -0.742 | I -0.665 | C -0.688 | P -0.608 | Y -0.825 | F -0.681 | V -0.912 | D -0.556
